Measured values from patent US20240025984A1 (FLUX THERAPEUTICS, published 2024).

T1: SYNGAP1-nanoluc-alfa-tag-fusion
T1 chain: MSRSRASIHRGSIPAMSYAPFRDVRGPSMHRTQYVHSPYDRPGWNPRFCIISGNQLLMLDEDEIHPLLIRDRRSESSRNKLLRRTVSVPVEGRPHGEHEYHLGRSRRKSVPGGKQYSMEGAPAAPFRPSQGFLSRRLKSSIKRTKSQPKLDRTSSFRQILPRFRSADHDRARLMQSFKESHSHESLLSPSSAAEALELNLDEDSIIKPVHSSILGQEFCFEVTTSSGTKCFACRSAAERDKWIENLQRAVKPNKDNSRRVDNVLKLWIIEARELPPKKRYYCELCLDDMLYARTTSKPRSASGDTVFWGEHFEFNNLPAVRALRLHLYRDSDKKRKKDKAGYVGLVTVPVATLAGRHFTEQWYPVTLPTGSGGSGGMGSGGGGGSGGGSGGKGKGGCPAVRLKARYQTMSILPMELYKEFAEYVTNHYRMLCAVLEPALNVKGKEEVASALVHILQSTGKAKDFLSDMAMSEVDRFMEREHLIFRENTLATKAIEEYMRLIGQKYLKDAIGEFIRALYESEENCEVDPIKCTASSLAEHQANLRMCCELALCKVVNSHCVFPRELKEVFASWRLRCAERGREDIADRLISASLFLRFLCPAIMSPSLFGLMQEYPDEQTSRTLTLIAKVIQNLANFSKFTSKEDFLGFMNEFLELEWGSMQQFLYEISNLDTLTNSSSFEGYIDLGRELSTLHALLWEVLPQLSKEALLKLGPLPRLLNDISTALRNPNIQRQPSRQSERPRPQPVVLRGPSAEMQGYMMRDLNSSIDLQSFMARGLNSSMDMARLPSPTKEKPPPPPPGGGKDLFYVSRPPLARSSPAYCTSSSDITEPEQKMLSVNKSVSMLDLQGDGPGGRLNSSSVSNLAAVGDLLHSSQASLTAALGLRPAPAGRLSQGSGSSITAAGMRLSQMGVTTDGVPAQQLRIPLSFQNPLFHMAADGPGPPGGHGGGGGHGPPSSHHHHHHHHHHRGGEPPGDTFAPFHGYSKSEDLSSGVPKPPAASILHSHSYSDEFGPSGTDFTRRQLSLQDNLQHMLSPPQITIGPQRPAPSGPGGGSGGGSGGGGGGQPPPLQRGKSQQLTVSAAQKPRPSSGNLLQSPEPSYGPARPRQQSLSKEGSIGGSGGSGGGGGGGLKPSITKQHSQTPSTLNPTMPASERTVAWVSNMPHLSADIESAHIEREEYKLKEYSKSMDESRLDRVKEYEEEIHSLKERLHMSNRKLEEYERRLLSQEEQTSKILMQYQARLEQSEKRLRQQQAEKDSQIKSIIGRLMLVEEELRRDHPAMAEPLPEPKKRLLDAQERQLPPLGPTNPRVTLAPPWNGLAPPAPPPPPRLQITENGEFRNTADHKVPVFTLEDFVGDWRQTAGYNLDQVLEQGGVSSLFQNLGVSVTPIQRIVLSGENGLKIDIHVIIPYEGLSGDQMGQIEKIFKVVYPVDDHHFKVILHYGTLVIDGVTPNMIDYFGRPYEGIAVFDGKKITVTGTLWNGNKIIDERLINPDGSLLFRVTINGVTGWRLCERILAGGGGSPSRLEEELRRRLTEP


Target: T1, SYNGAP1-nanoluc-alfa-tag-fusion
Test: cell-based or functional assay

Row | increase in SYNGAP1 expression over the control | Binder
1 | ≥ 2 fold | FireflyLuciferase-P2A-anti-syngap1_FLX00152-Cezanne (other) MEDAKNIKKGPAPFYPLEDGTAGEQLHKAMKRYALVPGTIAFTDAHIEVDITYAEYFEMSVRLAEAMKRYGLNTNHRIVVCSENSLQFFMPVLGALFIGVAVAPANDIYNERELLNSMGISQPTVVFVSKKGLQKILNVQKKLPIIQKIIIMDSKTDYQGFQSMYTFVTSHLPPGFNEYDFVPESFDRDKTIALIMNSSGSTGLPKGVALPHRTACVRFSHARDPIFGNQIIPDTAILSVVPFHHGFGMFTTLGYLICGFRVVLMYRFEEELFLRSLQDYKIQSALLVPTLFSFFAKSTLIDKYDLSNLHEIASGGAPLSKEVGEAVAKRFHLPGIRQGYGLTETTSAILITPEGDDKPGAVGKVVPFFEAKVVDLDTGKTLGVNQRGELCVRGPMIMSGYVNNPEATNALIDKDGWLHSGDIAYWDEDEHFFIVDRLKSLIKYKGYQVAPAELESILLQHPNIFDAGVAGLPDDDAGELPAAVVVLEHGKTMTEKEIVDYVASQVTTAKKLRGGVVFVDEVPKGLTGKLDARKIREILIKAKKGGKIAVTRLKGSGATNFSLLKQAGDVEENPGPRSGTGSSGQVQLVESGGGLVQPGGSLRLSCAASGFSFSNFPMMWVRQAPGKGREWVADINQDGRNTYYADSVKGRFTISRDNAKTTVYLQMNNLNPEDTAVYYCQAIRTTTHFDSWGQGTQVTVSSGAPGSGPPSFSEGSGGSRTPEKGFSDREPTRPPRPILQRQDDIVQEKRLSRGISHASSSIVSLARSHVSSNGGGGGSNEHPLEMPICAFQLPDLTVYNEDFRSFIERDLIEQSMLVALEQAGRLNWWVSVDPTSQRLLPLATTGDGNCLLHAASLGMWGFHDRDLMLRKALYALMEKGVEKEALKRRWRWQQTQQNKESGLVYTEDEWQKEWNELIKLASSEPRMHLGTNGANCGGVESSEEPVYESLEEFHVFVLAHVLRRPIVVVADTMLRDSGGEAFAPIPFGGIYLPLEVPASQCHRSPLVLAYDQAHFSALVSMEQKENTKEQAVIPLTDSEYKLLPLHFAVDPGKGWEWGKDDSDNVRLASVILSLEVKLHLLHSYMNVKWIPLSSDAQAPLAQ
2 | ≥ 2 fold | FireflyLuciferase-P2A-anti-syngap1_FLX00153-Cezanne (other) MEDAKNIKKGPAPFYPLEDGTAGEQLHKAMKRYALVPGTIAFTDAHIEVDITYAEYFEMSVRLAEAMKRYGLNTNHRIVVCSENSLQFFMPVLGALFIGVAVAPANDIYNERELLNSMGISQPTVVFVSKKGLQKILNVQKKLPIIQKIIIMDSKTDYQGFQSMYTFVTSHLPPGFNEYDFVPESFDRDKTIALIMNSSGSTGLPKGVALPHRTACVRFSHARDPIFGNQIIPDTAILSVVPFHHGFGMFTTLGYLICGFRVVLMYRFEEELFLRSLQDYKIQSALLVPTLFSFFAKSTLIDKYDLSNLHEIASGGAPLSKEVGEAVAKRFHLPGIRQGYGLTETTSAILITPEGDDKPGAVGKVVPFFEAKVVDLDTGKTLGVNQRGELCVRGPMIMSGYVNNPEATNALIDKDGWLHSGDIAYWDEDEHFFIVDRLKSLIKYKGYQVAPAELESILLQHPNIFDAGVAGLPDDDAGELPAAVVVLEHGKTMTEKEIVDYVASQVTTAKKLRGGVVFVDEVPKGLTGKLDARKIREILIKAKKGGKIAVTRLKGSGATNFSLLKQAGDVEENPGPRSGTGSSGQLQLVESGGGLVQPGESLRLSCAASGFTFSNYRMYWVRMAPGKGLEWVSDIDRSGTYTYYADSVKGRFAISRDNAKNTVYLQMNSLKPEDTAVYYCAADRRLIVDLTPEVYDHWGQGTQVTVSSGAPGSGPPSFSEGSGGSRTPEKGFSDREPTRPPRPILQRQDDIVQEKRLSRGISHASSSIVSLARSHVSSNGGGGGSNEHPLEMPICAFQLPDLTVYNEDFRSFIERDLIEQSMLVALEQAGRLNWWVSVDPTSQRLLPLATTGDGNCLLHAASLGMWGFHDRDLMLRKALYALMEKGVEKEALKRRWRWQQTQQNKESGLVYTEDEWQKEWNELIKLASSEPRMHLGTNGANCGGVESSEEPVYESLEEFHVFVLAHVLRRPIVVVADTMLRDSGGEAFAPIPFGGIYLPLEVPASQCHRSPLVLAYDQAHFSALVSMEQKENTKEQAVIPLTDSEYKLLPLHFAVDPGKGWEWGKDDSDNVRLASVILSLEVKLHLLHSYMNVKWIPLSSDAQAPLAQ
3 | ≥ 2 fold | FireflyLuciferase-P2A-anti-syngap1_FLX00157-Cezanne (other) MEDAKNIKKGPAPFYPLEDGTAGEQLHKAMKRYALVPGTIAFTDAHIEVDITYAEYFEMSVRLAEAMKRYGLNTNHRIVVCSENSLQFFMPVLGALFIGVAVAPANDIYNERELLNSMGISQPTVVFVSKKGLQKILNVQKKLPIIQKIIIMDSKTDYQGFQSMYTFVTSHLPPGFNEYDFVPESFDRDKTIALIMNSSGSTGLPKGVALPHRTACVRFSHARDPIFGNQIIPDTAILSVVPFHHGFGMFTTLGYLICGFRVVLMYRFEEELFLRSLQDYKIQSALLVPTLFSFFAKSTLIDKYDLSNLHEIASGGAPLSKEVGEAVAKRFHLPGIRQGYGLTETTSAILITPEGDDKPGAVGKVVPFFEAKVVDLDTGKTLGVNQRGELCVRGPMIMSGYVNNPEATNALIDKDGWLHSGDIAYWDEDEHFFIVDRLKSLIKYKGYQVAPAELESILLQHPNIFDAGVAGLPDDDAGELPAAVVVLEHGKTMTEKEIVDYVASQVTTAKKLRGGVVFVDEVPKGLTGKLDARKIREILIKAKKGGKIAVTRLKGSGATNFSLLKQAGDVEENPGPRSGTGSSGQVQLVESGGGLVQAGASLRLSCAASERTFGHYAMGWFRQAPGKEREFVATISWKGGTTGYAHSVKGRFTISRDSAKNMVYLQMNSLKPEDTAVYYCAARNTMSGSMSSSAYPYWGQGTQVTVSSGGGGSGGGGSGGGGSGGGGSQVQLVESGGGLVQAGASLRLSCAASERTFGHYAMGWFRQAPGKEREFVATISWKGGTTGYAHSVKGRFTISRDSAKNMVYLQMNSLKPEDTAVYYCAARNTMSGSMSSSAYPYWGQGTQVTVSSGAPGSGPPSFSEGSGGSRTPEKGFSDREPTRPPRPILQRQDDIVQEKRLSRGISHASSSIVSLARSHVSSNGGGGGSNEHPLEMPICAFQLPDLTVYNEDFRSFIERDLIEQSMLVALEQAGRLNWWVSVDPTSQRLLPLATTGDGNCLLHAASLGMWGFHDRDLMLRKALYALMEKGVEKEALKRRWRWQQTQQNKESGLVYTEDEWQKEWNELIKLASSEPRMHLGTNGANCGGVESSEEPVYESLEEFHVFVLAHVLRRPIVVVADTMLRDSGGEAFAPIPFGGIYLPLEVPASQCHRSPLVLAYDQAHFSALVSMEQKENTKEQAVIPLTDSEYKLLPLHFAVDPGKGWEWGKDDSDNVRLASVILSLEVKLHLLHSYMNVKWIPLSSDAQAPLAQ
